Tests used:
[1] = biological target: pxENB9-FLS-CT-His (SARS-CoV-2, UniProt P0DTC2 15-1213)
[2] = biological target: T1, pxENB17-RBD-His (SARS-CoV-2, UniProt P0DTC2 319-541); experiment: BLI (Octet), ACE2 construct loaded on SA tips by its tag, RBD as analyte
T1 construct: domain: RBD

[3] = biological target: T1, pxENB17-RBD-His

Binder	Kd [1] [µM]	Response, shift in Wavelength (nm) [2] [nm]	Kd [3] [µM]
pxEBN9-ACE2-AAA-SBP-His (receptor) QSTIEEQAKTFLDKFNHEAEDLFYQSSLASWNYNTNITEENVQNMNNAGDKWSAFLKEQSTLAQMYPLQEIQNLTVKLQLQALQQNGSSVLSEDKSKRLNTILNTMSTIYSTGKVCNPDAPAECLLLEPGLNEIMANSLDYNERLWAWESWRSEVGKALRPLYEEYVVLKNEMARANHYEDYGDYWRGDYEVNGVDGYDYSRGQLIEDVEHTFEEIKPLYEHLHAYVRAKLMNAYPSYISPIGCLPAHLLGDMWGRFWTNLYSLTVPFGQKPNIDVTDAMVDQAWDAQRIFKEAEKFFVSVGLPNMTQGFWENSMLTDPGNVQKAVCHPTAWDLGKGDFRILMCTKVTMDDFLTAHHEMGHIQYDMAYAAQPFLLRNGANEGFHEAVGEIMSLSAATPKHLKSIGLLSPDFQEDNETEINFLLKQALTIVGTLPFTYMLEKWRWMVFKGEIPKDQWMKKWWEMKREIVGVVEPVPHDETYCDPASLFHVSNDYSFIRYYTRTLYQFQFQEALCQAAKHEGPLHKCDISNSTEAGQKLFNMLRLGKSEPWTLALENVVGAKNMNVRPLLNYFEPLFTWLKDQNKNSFVGWSTDWSPYADGGGSMDEKTTGWRGGHVVEGLAGELEQLRARLEHHPQGQREPHHHHHHHH	13.4	0.0002	32.6
pxEBNCP13_hACE2-AAA-SBP (receptor) QSTIEEQAKTFLDKFNHEAEDLFYQSSLASWNYNTNITEENVQNMNNAGDKWSAFLKEQSTLAQMYPLQEIQNLTVKLQLQALQQNGSSVLSEDKSKRLNTILNTMSTIYSTGKVCNPDAPAECLLLEPGLNEIMANSLDYNERLWAWESWRSEVGKALRPLYEEYVVLKNEMARANHYEDYGDYWRGDYEVNGVDGYDYSRGQLIEDVEHTFEEIKPLYEHLHAYVRAKLMNAYPSYISPIGCLPAHLLGDMWGRFWTNLYSLTVPFGQKPNIDVTDAMVDQAWDAQRIFKEAEKFFVSVGLPNMTQGFWENSMLTDPGNVQKAVCHPTAWDLGKGDFRILMCTKVTMDDFLTAHHEMGHIQYDMAYAAQPFLLRNGANEGFHEAVGEIMSLSAATPKHLKSIGLLSPDFQEDNETEINFLLKQALTIVGTLPFTYMLEKWRWMVFKGEIPKDQWMKKWWEMKREIVGVVEPVPHDETYCDPASLFHVSNDYSFIRYYTRTLYQFQFQEALCQAAKHEGPLHKCDISNSTEAGQKLFNMLRLGKSEPWTLALENVVGAKNMNVRPLLNYFEPLFTWLKDQNKNSFVGWSTDWSPYADGGSGMDEKTTGWRGGHVVEGLAGELEQLRARLEHHPQGQREP	10.5	0.0102	0.401
pxEBNCP24_hACE2-AAA-p53-SBP (receptor) QSTIEEQAKTFLDKFNHEAEDLFYQSSLASWNYNTNITEENVQNMNNAGDKWSAFLKEQSTLAQMYPLQEIQNLTVKLQLQALQQNGSSVLSEDKSKRLNTILNTMSTIYSTGKVCNPDAPAECLLLEPGLNEIMANSLDYNERLWAWESWRSEVGKALRPLYEEYVVLKNEMARANHYEDYGDYWRGDYEVNGVDGYDYSRGQLIEDVEHTFEEIKPLYEHLHAYVRAKLMNAYPSYISPIGCLPAHLLGDMWGRFWTNLYSLTVPFGQKPNIDVTDAMVDQAWDAQRIFKEAEKFFVSVGLPNMTQGFWENSMLTDPGNVQKAVCHPTAWDLGKGDFRILMCTKVTMDDFLTAHHEMGHIQYDMAYAAQPFLLRNGANEGFHEAVGEIMSLSAATPKHLKSIGLLSPDFQEDNETEINFLLKQALTIVGTLPFTYMLEKWRWMVFKGEIPKDQWMKKWWEMKREIVGVVEPVPHDETYCDPASLFHVSNDYSFIRYYTRTLYQFQFQEALCQAAKHEGPLHKCDISNSTEAGQKLFNMLRLGKSEPWTLALENVVGAKNMNVRPLLNYFEPLFTWLKDQNKNSFVGWSTDWSPYADGGGSKPLDGEYFTLQIRGRERFEMFRELNEALELKDAQAGKEPGGGSGMDEKTTGWRGGHVVEGLAGELEQLRARLEHHPQGQREP	1e-06	0.028	0.000231

— patent publication US20240400618A1 (GRIFOLS DIAGNOSTIC SOLUTIONS, published 2024)
